Experiment: soluble on expression in E. coli; label from the status in PepcDB or PDB records

Row | Sequence | soluble on expression in E. coli
1 | MSLGEPMKQEKQQFIKTDWTIDMINRRQFEKYAIDILTATKDIHRGGWVERIDNKAWQYVRVYENGDIEVLITLQIIRFHKYFDTPVWLQFNPNHLLPADYVQLDHVMKYVDHSHLTRADLANDIYNINLQRYDFGLFGVTRDIYRSLSGDLETRYWGRRKSERQIRLYDKMREMKKHGKADDIPDGITDWWRLEFQFRGGKVESWQEEVMDKMQSFHVLAVDDNDDLSEIDKAILARVNADKFDFKRVGKRYAAKIRKMVRENVGFDTTVAELSLKTFNEQKDELQRQLDSMLAKYNIGAQTEEMTAYFEEELKQTGNLDFSVVESESALERNVIRNIAKTWREENSLTHRTNTEGHHHHHH | not soluble
2 | MEKQKTFHVAVVGATGAVGEQMLNTLEKREFPIGKLTLLSSKRSAGKKLVFKGEEFTVQEATPESFEGVDIALFSAGGSVSKQLAPEAAKRGAIVVDNTSAFRMTENVPLVVPEVNENDLKEHNGIIANPNCSTIQMVVALEPVRQQYGLKRVIVSTYQAVSGAGAAAIEELHEQSQAILNGEEVKANVLPVSGDKKHFPIAFNAIPQIDKFQDNGFTFEEMKMINETKKIMHMPELEVAATCVRLPVVSGHSESVYIEVEKEGVTVEELKSLLANAEGIVLQDNPEEQLYPMPATAVGKNEVFVGRIRKDLNNDKGFHLWVVSDNLLKGAAWNSVQIAERLVKLQLV | not soluble
3 | MNQTLLSDFGTPVERVERAIDALRNGRGVMVLDDESRENEGDMVFAAEAMTLEQMALTIRHGSGIVCLCITDERRQQLDLPMMVTHNSSQFQTAFTVTIEAAEGVTTGVSAADRLTTIRKAIADNAKPADLNRPGHVFPLRGQPGGVLSRRGHTEASIDLATLAGYKPAGVLCELTNDDGSMAHAPEVIAFAKLHDMPVVTIDDLAAYLQSRAKKAS | not soluble
4 | MAHHHHHHMTAQILLYTDCIPQVFSPLKGEREGLLDSQQFANITTNCNTAFACGDPSLNTRISPYMRLSYFHNVTRIRNRKAHISHDIAGDCYVHYKTTCGGIILRPNVRLRPRGRSHRNRVSPRNVIFAAIFLNHRRNGLNRHIDRLNQILQKIIGNIAQTRYG | not soluble
5 | MGSDKIHHHHHHMTQRQERLFVLEASSGGRLFSVNPDGSDKKVIVTGCRIPDGVAIDVLAGHVYWTNMGLPPENDGSIERVDLDGGNRTTIVPSGVTHTPKQLYLEAVGRKLYWGDREGMRVMRCDLDGSHVETLVQTGQGEDDRRDETRWCVGVAVDPAGGHLYWTQKGPSDAGLGKILRAGISLPAGESAAERGDIEVLFEGLPEPIDLELDLAERMLYWTDRGDPPRGNSVNRSPMHPPDAQRTPEILLTHLMEAIGIALDPDGGRMYVTDLAGNVYAAGLDGSNRREILVAQGNLTGIAHAVLPTGTSF | not soluble
6 | MAHHHHHHMPLNAQQLLFHLARRNSAPPWRWFPTATENKLFERLDTSGSPTAQVVYSQFVQARLQGSCSAGTAPIQLDLFLDELTPSDDGDYILRCPLANSHLMKRLVVPAPMRIAMHGLLQEVIDVFQQAGIRYWAAGGTLLGAVRHGCIIPWDDDVDLAISVEDELKLRSAFKYPCAHGSDDNIGDNSGDCNSEYSSESSSNEVEKNDGNNGGNLVLEYVPLFGYKVYSRLLPPPFPSPSLPGVGSSCLRYGYFVDIFIMRESKNRFVLARESAQRTWPDEWWHVDELFPLLQKPFAAVAACASEQHPQTALQLSVGRYPLMHLHRLYGETCMQEALIPRELHGRELSHSLRIPLELL | not soluble
7 | MRGSHHHHHHTDPALRAIKVYGVPGWGSTISELMLTLADIPYQFVDVSGFDHEGASRELLKTLNPLCQVPTLALENDEIMTETAAIALMVLDRRPDLAPPVGRAERQLFQRLLVWLVANVYPTFTFADYPERWAPDAPEQLKKNVIEYRKSLYIWLNSQLTAEPYAFGEQLTLVDCYLCTMRTWGPGHEWFQDNATNISAIADAVCQLPKLQEVLKRNEIIGLCGR | soluble
8 | MPLGLLWLGLALLGALHAQAQDSTSDLIPAPPLSKVPLQQNFQDNQFQGKWYVVGLAGNAILREDKDPQKMYATIYELKEDKSYNVTSVLFRKKKCDYAIATFVPGSQPGEFTLGNIKSYPGLTSYLVRVVSTNYNQHAMVFFKKVSQNREYFKITLYGRTKELTSELKENFIRFSKSLGLPENHIVFPVPIDQCIDG | soluble
9 | TRGAKDTVMIVNAQGGMEPREVTVAQQQGTNWIVTSGLKDGDKVVVEGISIAGITGAKKVTPKEWASSENQAAAPQSGVQTASEAKPASEAK | not soluble
10 | MPELSETAERSQSNTPLAMIMDDSDIDYQRFQELVASTDSLAILCHDNPDPDTLASALALEAIAKEWEVPTVDIVYGGTVTHQQNRAMINVLDIELTPIDQVSLSDYGLVAFVDHGIPGQNNSAVEEMTPDIIIDHHPTDGLQGQFVDLRPAVGATATLLTRYLEIFSIELEERLATALLFALHRETLDFNRETTSTEHAAACVLHPHADHNIIEELTNSVFTPETISGIGDAIANREVRGSCLVSSLGWIRERDAVPQAADYLLQLEGVSTTIVYGIVDDNVHLSGRTSNSQLHIGNVMEETFDQVGSAGGHHDMAGGQVPLGFIGSVDDGDDVAIDLINQSMMARLFGALEGWTET | not soluble
11 | EAPFTLKVNTLPLNFDKAEHHRKFQIHINVSYIGERPNSNMVIVDVKMVSGFIPVKPSVKKLQDQSNIQRTEVNTNHVLIYIEKLTNQTMGFSFAVEQDIPVKNLKPAPVKVYDYYETDEFAIEEYSAPFSSDS | soluble
12 | SAHSKTRTNDGKITYPPGVKEISDKISKEEMVRRLKMVVKTFMDMDQDSEEEKELYLNLALHLASDFFLKHPDKDVRLLVACCLADIFRIYAPEAPYTSPDKLKASTDLNNSKIDRYFDLSF | soluble
13 | TGIEQLEFQRESSVSTTLQGVCEPILAILVQGKKEALLCDETYRYSAAQYLVVSVDLPLSAFIVEATPEKPYLGFKLNLDPRQLCDIITAQTNVIEEKKNSVRGLFVSTIDAPLLDCAMRLTRLLDTPQDIPILAPMIIREIYYRLLMGEQGEAV | not soluble
14 | MSLTGSSSITRTCAVIFSSGFRFMDLLHAVPYAALWHGRFEHPVLRIACILSIAAGNRVPICFESITRRIRPMTLHRPAPHPVFSLAETSGPVLGDLPGWKLSDLYPSGDSPEYKRDLEKAASMAAAFEAKWKDKLESAAKAKGEDGIGAALKDYEALDDLIGRIGSFAGLTYFSDTSNPANGKLYGDAQAKLTEISAHLLFFTLELNRIDDAVMDACMANDAAAGHYRPWLVDLRKDKPHQLDDQLEQLFLEKSMTSAAAFNRLFDETMADLRFDIDGASLSLEVTLNMLQEPEPETRRKAAEALSATFKDNLRVFTLITNTLAKDKDISDRWRNFEDIADSRHLANRVERDVVDALAAAVKKAYPRLSHRYYAMKAKWLGMEQMNYWDRNAPLPDTSNTIIPWDEAKDTVLSAYGNFAPEMADIARRFFDEEWIDAPARPGKAPGAFAHPTVPSAHPYVLVNYLGKPRDVMTLAHELGHGVHQVLAGQQGALMCATPLTLAETASVFGEMLTFRKLLDDTKDIRERKAMLARKVEDMINTVVRQIAFYEFERKLHTARKEGELTSEQIGELWLSVQAESLGPAIRISEGYETWWTYIPHFIHSPFYVYAYAFGDCLVNSLYAVYQKAEAGFQEKYFELLKAGGTKHHSELLKPFGLDATDPSFWDKGLSMIEGLIDELEELDRKQAEGHHHHHH | soluble
15 | MRSERSERSDDTDGDTTALALKILVAGGFGVGKTTLVGAVSEIRPLRTEELLSEAGRLVDDTDGIDRKVTTTVAMDFGRITIRSGLSLYLFGTPGQDRFWFLWDELAQGALGAVVLADTRRLADCFPAVDYFEHRHIPFVVAVNCFTGARRHDEYSVLRALDLDPGTPVVLCDARDRDSGKEVLIRLVEYAGRMHTARLLDSVRLEHHHHHH | not soluble
16 | GPGSGDPYWAYSGAYGPEHWVTSSVSCGGSHQSPIDILDHHARVGDEYQELQLDGFDNESSNKTWMKNTGKTVAILLKDDYFVSGAGLPGRFKAEKVEFHWGHSNGSAGSEHSVNGRRFPVEMQIFFYNPDDFDSFQTAISENRIIGAMAIFFQVSPRDNSALDPIIHGLKGVVHHEKETFLDPFILRDLLPASLGSYYRYTGSLTTPPCSEIVEWIVFRRPVPISYHQLEAFYSIFTTEQQDHVKSVEYLRNNFRPQQALNDRVVSKS | soluble
17 | MGSDKIHHHHHHMSMKISEKKFNDRVGDGIQDSFMRGAVSSAQTRLYTNRLKAADELGNWEEWRELGEEIRQHTLENLDYYLMQLSENVSKRGGHVYFAKTKEEAAKYIQDVAKKKQAKKVVKSKSMVTEEISMNHALEEIGCEVLESDLGEYILQVDNDPPSHIIAPALHKNRTQIRDVFKEKLGYENSDDPYEMTKFVRKQLREKFMDAEIGVTGCNFAVANTGSLCLVTNEGNADLVMSIPKTQIAVMGMERMVPTMEELDVLVGLLCRSAVGQKLTSYVTVAGPIQEEEVDGPEEFHLVVVDNGRSQILGSEFRQVLQCIRCAACVNVCPVYRHVGGHSYGSIYSGPIGAVLTPLLGGYDDYKELPYASSLCGACTEACPVKIPLHDLLLKHRQVIVEQEGRAPLAEKLAMKMFSMGASSAALYKMGSKMAPAAMSPFTSGNRVSKGVGPLKNWTDIREFPAPSKERFRDWYKDHKKGGDK | not soluble
18 | MGMLGLDLLKEVPGLLEEIKALPLRLDEERFRFWLQQDYPFVEALYRYQVGLLLEAPQAHRAPLVQALMATVEELDWLLLQGASPSAPVHPVRAGYIALLEEMGRLPYAYRVVFFYFLNGLFLEAWAHHVPEEGPWAELSQHWFAPEFQAVLYDLEVLARGLWEDLDPEVVRTYLRRILEAEKATWSLLL | soluble
19 | MKKITINDLMKWKQEGRKFATSTAYDASFAQLFESQEMPVLLVGDSLGMVLQGETDTLPVTVDDIAYHTRCVRKGSPNCLLMADMPFMSYATPEQACENAAKLVRAGANMVKIEGGDWLVDTVKMLTERAVPVCAHLGLTPQSVNIFGGYKVQGREQDKADRMVRDALALQEAGAQIVLLECVPAELANRITQILDVPVIGIGAGNGTDGQILVMHDMFGISANYMPKFSKNFLAETGDIRQAVAKYIEDVASGAFPDLAHTIALEHHHHHH | soluble
20 | MNLTHQDFNLFNREIFTFKQLKEQQTSAEIDALKQTYKQHWEKWKALNLAIAQGLPAELGITKPKIESWTNGWNLRSHFWAAYRSEQRQAENACLALLLNKKQFQVYLMFQHYKSEERTGSVVAYNQLLNRLEAWSQTIDCEGYYIWPQEEHELVDHLPLKDYLADEKQRKILEERIGNRSFQIGKLWFATEKLETIEEKSCQALQELAPLYNALSEK | not soluble
21 | MFIREEEQMKRMIITIGRQSGSSGRKVGELLAERLSLPLYGKAELQKIAEGTDDYEEVQAFYEEEPVNSLLYAIAMSQFEQEVGRIPFQRIRELASKESCIIIGRCAGHIFREDPEAVRVFIHADPKIRVQRIMEREGLSETKAKKFLEDTDSRRASFHKYYTKQEWGLAQDYELCLDSGVLGIEGTVEVLTEYLRFRGFLGNE | not soluble

Source: the DeepSol protein solubility set
